Measurements reported in publication PMC5587771.
Read-outs that look alike come from different tables or passages of the source.

T1: SmAP1 (Sulfolobus solfataricus, UniProt Q97ZQ0 1-79)
T1 sequence: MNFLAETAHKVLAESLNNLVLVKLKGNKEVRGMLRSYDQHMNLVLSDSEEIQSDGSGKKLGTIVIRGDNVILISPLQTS


How the values were obtained:
SmAP2 [1] = biological target: T2, SmAP2 (Sulfolobus solfataricus, UniProt Q980S8 1-87); test: MST
SmAP2, NT-647 labelled = SmAP2, NT-647 labelled (Sulfolobus solfataricus, UniProt Q980S8 1-87); test: MST
SmAP2 [2] = biological target: T2, SmAP2; test: MST; remark: listed apart in the source
SmAP2 T40H = SmAP2 T40H (Sulfolobus solfataricus, UniProt Q980S8 1-87, T40H); test: EMSA
SmAP1 = biological target: T1, SmAP1; test: EMSA

| Binder | Kd (SmAP2 [1]) | Kd (SmAP2, NT-647 labelled) | also measured |
| --- | --- | --- | --- |
| GGAGAUAUAGUAGGAUAG (ssRNA) [2194-RBM] | 14.4 ± 3.3 nM |  |  |
| GGAUGGAUAUUAGGAAAUG (ssRNA) [SmAP2-cRBM] |  | 42.1 ± 17.8 nM |  |
| GGAUGGAUAUUAGGAAAUG (ssRNA) [SmAP2-cRBM, FAM] |  |  | Kd (SmAP2 [2]): 32.7 ± 14.4 nM; binding result (SmAP2 T40H): no binding; binding result (SmAP1): no binding |
| GGAUGGAUAUUAGGUACUGGG (ssRNA) [1742-RBM] | 5.9 ± 5.5 nM |  |  |
| UUUUUUUUUUUUUUU (ssRNA) [poly(U)15] |  | 426 ± 92 nM |  |
